Data on one molecule can be found in article doi:10.1101/2020.05.01.070730 (bioRxiv, 2020).

In the series the target is T1, MutS R842E (Pseudomonas aeruginosa, UniProt Q9HY08 1-855, R842E).
T1 sequence: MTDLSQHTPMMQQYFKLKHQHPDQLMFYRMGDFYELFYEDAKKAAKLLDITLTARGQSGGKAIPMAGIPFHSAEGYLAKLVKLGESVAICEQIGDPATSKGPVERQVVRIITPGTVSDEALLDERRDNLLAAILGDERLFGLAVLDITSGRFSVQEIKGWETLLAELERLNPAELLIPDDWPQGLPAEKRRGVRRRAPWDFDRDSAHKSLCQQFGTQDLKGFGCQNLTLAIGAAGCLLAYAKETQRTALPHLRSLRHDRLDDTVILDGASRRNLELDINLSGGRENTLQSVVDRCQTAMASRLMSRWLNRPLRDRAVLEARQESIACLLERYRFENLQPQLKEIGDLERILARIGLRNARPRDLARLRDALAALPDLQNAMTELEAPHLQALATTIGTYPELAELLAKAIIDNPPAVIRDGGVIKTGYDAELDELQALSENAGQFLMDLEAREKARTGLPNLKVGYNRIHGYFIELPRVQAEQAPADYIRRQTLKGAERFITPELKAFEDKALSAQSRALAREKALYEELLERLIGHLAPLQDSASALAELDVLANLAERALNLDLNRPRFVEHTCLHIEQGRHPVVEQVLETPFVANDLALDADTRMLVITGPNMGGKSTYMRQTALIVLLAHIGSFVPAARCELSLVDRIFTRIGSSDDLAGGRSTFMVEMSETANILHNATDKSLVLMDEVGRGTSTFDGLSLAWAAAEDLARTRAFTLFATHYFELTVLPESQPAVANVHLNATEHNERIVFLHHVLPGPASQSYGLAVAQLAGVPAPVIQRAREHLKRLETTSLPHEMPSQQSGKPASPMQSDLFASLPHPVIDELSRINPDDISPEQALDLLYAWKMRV
The series can be described thus: native PAGE shift.

B1: GT-pDNA (GT 8 nt from 3'-OH) (dsDNA)
DNA 1: ATGTGAATCAGTATGGTTGCTATCTGC
DNA 2: ATTTCCTTCAGCAGATAGTAACCATACTGATTCACAT
Regarding B1, the binding result is “binds”.
